Test [1] addresses T1, Rhesus macaque Fas on the cell surface (rhesus macaque, UniProt Q9BDP2 26-333).
T1 construct: whole, on cells
T1 sequence (looked up): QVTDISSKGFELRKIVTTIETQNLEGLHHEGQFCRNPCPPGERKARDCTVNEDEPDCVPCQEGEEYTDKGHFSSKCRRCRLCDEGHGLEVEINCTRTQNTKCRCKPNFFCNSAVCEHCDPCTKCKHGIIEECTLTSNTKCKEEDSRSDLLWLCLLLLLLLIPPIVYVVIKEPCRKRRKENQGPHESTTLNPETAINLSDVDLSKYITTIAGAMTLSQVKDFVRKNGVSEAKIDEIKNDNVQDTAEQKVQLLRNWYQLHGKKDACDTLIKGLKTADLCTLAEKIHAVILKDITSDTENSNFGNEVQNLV
Put plainly: flow cytometry, rhesus macaque B cell line. From the text:
(§1) Reactivity of F45D9-γ1 or F45D9-γ4 mAb with Fas molecules of various species was initially screened using primary blood cells or lymphocytes cell lines. The binding of F45D9-γ1 or F45D9-γ4 mAb was explored by immunofluoresce staining and flow cytometry analysis, in human PBMC, purified human resting T cells, activated human T cells, peripheral blood lymphocytes (PBL) derived from BALE/c mice, rat, dog and pig, and in B cell lines or PBL derived from common marmoset, cynomolgus macaque, olive baboon, rhesus macaque and chimpanzee. Resting and activated human T cells were prepared as described in Example 7. B cells lines from monkeys were obtained from Biomedical Primate Research Center (Rijswijk, The Netherlands), and were cultured in RPMI 1640 medium supplemented with 2 mM glutamax, 100 UI/mL penicillin, 100 μg/mL streptomycin and 10% fetal bovine serum, at 37° C. and 5% CO₂. After washing in PBS cells (0.2−0.4×10⁶ cells/well) were incubated in staining buffer (PBS/1% FBS) containing F45D9-γ1 or human IgG control antibodies (10-20 ug/ml) in a 96-well U-bottom plate for 30 min on ice, in a 100 ul/well volume. Cells were then washed once with staining buffer, and further incubated for 30 min on ice with 1:30 dilution of FITC-conjugated rabbit F(ab′)₂ anti-human kappa (DakoCytomation Cat. F0434) or FITC-conjugated rabbit F(ab′)₂ anti-human IgG (DakoCytomation Cat. F0056). […]
On the technique in general: A flow cytometer gives signals particle by particle.

In test [2] the target is T2, Mouse Fas on the cell surface (mouse, UniProt P25446 22-327).
T2 construct: whole, on cells; also called Fas on peripheral blood lymphocytes of BALB/c mice
T2 sequence (looked up): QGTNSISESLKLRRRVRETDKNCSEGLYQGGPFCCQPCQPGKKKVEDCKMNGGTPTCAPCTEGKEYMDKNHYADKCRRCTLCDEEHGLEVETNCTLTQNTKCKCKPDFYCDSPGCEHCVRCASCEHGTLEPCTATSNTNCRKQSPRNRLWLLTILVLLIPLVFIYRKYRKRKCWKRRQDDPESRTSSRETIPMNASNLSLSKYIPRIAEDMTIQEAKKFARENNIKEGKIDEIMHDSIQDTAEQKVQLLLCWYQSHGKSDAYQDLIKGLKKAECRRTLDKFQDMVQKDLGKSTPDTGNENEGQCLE
Put plainly: flow cytometry, peripheral blood lymphocytes of mice.
From the text: as §1

Test [3] deals with T3, Rat Fas on the cell surface (rat, UniProt Q63199 22-324).
T3 construct: whole, on cells; also called Fas on rat peripheral blood lymphocytes
T3 sequence (looked up): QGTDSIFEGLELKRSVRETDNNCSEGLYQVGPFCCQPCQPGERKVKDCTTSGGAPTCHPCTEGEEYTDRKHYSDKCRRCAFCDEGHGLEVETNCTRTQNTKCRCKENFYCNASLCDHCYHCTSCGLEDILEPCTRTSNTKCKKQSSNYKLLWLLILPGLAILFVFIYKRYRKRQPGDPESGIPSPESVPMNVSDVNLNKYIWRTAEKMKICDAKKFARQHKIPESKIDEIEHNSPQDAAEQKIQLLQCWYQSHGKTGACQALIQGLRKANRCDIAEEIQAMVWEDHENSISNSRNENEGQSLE
Put plainly: flow cytometry, rat peripheral blood lymphocytes.
From the text: as §1

Test [4] concerns the target T4, Pig Fas on the cell surface (pig, UniProt O77736 17-332).
T4 construct: whole, on cells; also called Fas on pig peripheral blood lymphocytes
T4 sequence (looked up): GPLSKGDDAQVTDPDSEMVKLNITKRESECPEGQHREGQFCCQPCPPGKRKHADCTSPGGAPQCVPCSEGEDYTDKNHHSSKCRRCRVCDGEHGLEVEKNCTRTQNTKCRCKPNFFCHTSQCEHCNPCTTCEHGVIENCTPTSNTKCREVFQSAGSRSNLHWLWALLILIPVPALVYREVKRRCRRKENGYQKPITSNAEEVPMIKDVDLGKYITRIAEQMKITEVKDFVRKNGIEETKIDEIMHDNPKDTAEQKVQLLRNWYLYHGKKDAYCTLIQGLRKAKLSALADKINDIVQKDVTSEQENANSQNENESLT
Put plainly: flow cytometry, pig peripheral blood lymphocytes.
From the text: as §1

In test [5] the target is T5, Chimpanzee Fas on the cell surface (chimpanzee, UniProt K6ZIR5 26-335).
T5 construct: also called Fas on chimpanzee B cell line
T5 sequence: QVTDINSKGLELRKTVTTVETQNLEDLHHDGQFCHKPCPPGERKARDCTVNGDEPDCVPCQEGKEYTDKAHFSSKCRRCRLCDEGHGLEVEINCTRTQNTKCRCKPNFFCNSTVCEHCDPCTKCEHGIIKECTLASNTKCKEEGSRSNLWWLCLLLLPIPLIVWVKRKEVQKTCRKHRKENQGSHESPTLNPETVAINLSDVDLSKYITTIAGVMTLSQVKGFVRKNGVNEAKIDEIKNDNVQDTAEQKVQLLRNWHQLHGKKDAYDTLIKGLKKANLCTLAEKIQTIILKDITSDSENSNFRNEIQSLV
Put plainly: flow cytometry, chimpanzee B cell line.
From the text: as §1

Test [6] addresses T6, Recombinant human soluble Fas receptor (PeproTech, Cat. 310-20) (human, UniProt P25445 17-173).
T6 construct: Bought soluble form; also called sFas; rFas
T6 sequence (looked up): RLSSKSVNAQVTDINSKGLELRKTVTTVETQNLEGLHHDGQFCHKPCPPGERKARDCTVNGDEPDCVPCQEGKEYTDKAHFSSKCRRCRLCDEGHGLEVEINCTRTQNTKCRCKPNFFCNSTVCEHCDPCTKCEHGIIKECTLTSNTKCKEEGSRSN
Put plainly: SPR (BIAcore 3000), soluble Fas immobilized on CM5 chip; antibody form and model not given. Background: In SPR one partner is held on a chip, and binding of the other changes the refractive index at the surface.

Test [7] deals with T7, Cynomolgus macaque Fas on the cell surface (cynomolgus macaque, UniProt Q9TSN4 26-331).
T7 construct: whole, on cells; also called Fas on cynomolgus macaque B cell line and PBL
T7 sequence (looked up): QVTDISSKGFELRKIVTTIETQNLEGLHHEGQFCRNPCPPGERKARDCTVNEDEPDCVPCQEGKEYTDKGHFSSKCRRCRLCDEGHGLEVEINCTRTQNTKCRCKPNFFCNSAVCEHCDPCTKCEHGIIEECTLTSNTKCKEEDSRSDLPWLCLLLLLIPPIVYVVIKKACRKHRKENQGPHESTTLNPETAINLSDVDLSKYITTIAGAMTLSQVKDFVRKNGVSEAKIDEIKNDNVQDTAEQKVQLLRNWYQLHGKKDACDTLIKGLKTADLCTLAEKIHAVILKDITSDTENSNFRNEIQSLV
Put plainly: flow cytometry, cynomolgus macaque B cell line.
From the text: as §1

We go through one molecule from patent publication US20100233157A1 (published 2010).

For orientation: Kd means a measure of binding affinity in units of concentration.

B1: F45D9 mAb (isotype not specified at the place) (antibody, V domains shown)
VH: QVQLQQWGAGLLKPSETLSLICAVYGGSFSTYYWTWIRQPPGKGLEWIGEINHRGTTNYSPSLKSRVTISVDTSKNHISLNLTSVTAADTALYYCARGLLWIGEGDYGLDVWGQGTTVTVSS
VL: DIQMTQSPSSLSASVGDRVTITCRASQGIRRWLAWYQQKPEKAPKSLIYAASSLQSGVPSRFSGSGSGTDFTLTISSLQPEDFATYYCQQYNSYPYTFGQGTKLEIKR
notes: also called F45D9 mAb's
As to B1, the binding result is listed as “no binding” in test [1]; “no binding (tested: 10-20 ug/ml)” in test [2]; “no binding (tested: 10-20 ug/ml)” in test [3]; “no binding (tested: 10-20 ug/ml)” in test [4]; “binds” in test [5]; “no binding” in test [7]. The Ka in test [6] was found to be 6.5e+09 M⁻¹. Moreover, in test [6], the equilibrium dissociation constant (Kd) was determined as 0.153 nM.
